The values that follow come from article PMC11766367, “Structure-Function Relationship of the β-Hairpin of Thermus thermophilus HB27 Laccase” (International Journal of Molecular Sciences, 2025).

Substrate in series [1]: COc1ccccc1O
Description: purified protein. As to conditions: pH 6.0, 61.5 °C, free copper contradictory: caption says without, methods and text suggest 1 mM CuSO4 added.

Substrate in series [2]: COc1cc(C=NN=Cc2cc(OC)c(O)c(OC)c2)cc(OC)c1O
In words: spectrophotometric oxidation assay, Michaelis-Menten fit. Type of series: biochemical, Thermus thermophilus. As to conditions: pH 6.0, 61.5 °C, free copper contradictory: caption says without, methods and text suggest 1 mM CuSO4 added. From the text: (§1) spectrophotometric oxidation assay, Michaelis-Menten fit on Tth-Lac

Substrate in series [3]: CCn1c(=NN=c2sc3cc(S(=O)(=O)O)ccc3n2CC)sc2cc(S(=O)(=O)O)ccc21
Described as above. The note with it: pH 6.0, 61.5 °C, free copper contradictory: caption says without, methods and text suggest 1 mM CuSO4 added. Type of series: biochemical, Thermus thermophilus.
Description: as §1

Substrate in series [4]: COc1cccc(OC)c1O
The series is described as above. Type of series: biochemical, Thermus thermophilus. As to conditions: pH 7.0, 61.5 °C, free copper contradictory: caption says with, methods and text suggest without, pH 7.0.
Description: as §1

B1: Tth-Lac (Thermus thermophilus HB27; A292G/DEL293-307) (protein)
chain: QGPSFPEPKVVRSQGGLLSLKLSATPTPLALAGQRATLLTYGGSFPGPTLRVRPRDTVRLTLENRLPEPTNLHWHGLPISPKVDDPFLEIPPGESWTYEFTVPKELAGTFWYHPHLHGRVAPQLFAGLLGALVVESSLDAIPELREAEEHLLVLKDLALQGGRPAPHTPMDWMNGKEGDLVLVNGALRPTLVAQKATLRLRLLNASNARYYRLALQDHPLYLIAADGGFLEEPLEVSELLLAPGERAEVLVRLRKEGRFLLQALPYDRGGGPSRPETLLYLIAPKNPKPLPLPKALSPFPTLPAPVVTRRLVLTEDMMAARFFINGQVFDHRRVDLKGQAQTVEVWEVENQGDMDHPFHLHVHPFQVLSVGGRPFPYRAWKDVVNLKAGEVARLLVPLREKGRTVFHCHIVEHEDRGMMGVLEVG
notes: signal peptide removed, gene starts at residue 23; pET-22b(+), E. coli BL21 Gold (DE3) with CuSO4; heat step and CM-Sepharose; no tag mentioned; monomer
Take B1: the Km was found to be 37 ± 5 µM in series [1] (C2Tth-Lac); 7.2 ± 1.13 µM in series [2] (C2Tth-Lac, pH 6.0); 940 ± 190 µM in series [3] (C2Tth-Lac, pH 6.0); 220 ± 30 µM in series [4] (C2Tth-Lac). In addition, the maximum rate (Vmax) came to 3.98 ± 0.21 µmol/mg/min in series [1] (C2Tth-Lac); 7.20 ± 0.46 µmol/mg/min in series [2] (C2Tth-Lac, pH 6.0); 14.80 ± 1.43 µmol/mg/min in series [3] (C2Tth-Lac, pH 6.0); 0.87 ± 0.4 µmol/mg/min in series [4] (C2Tth-Lac).

B2: Tth-Lac (Thermus thermophilus HB27; A304G/DEL295-303) (protein)
chain: QGPSFPEPKVVRSQGGLLSLKLSATPTPLALAGQRATLLTYGGSFPGPTLRVRPRDTVRLTLENRLPEPTNLHWHGLPISPKVDDPFLEIPPGESWTYEFTVPKELAGTFWYHPHLHGRVAPQLFAGLLGALVVESSLDAIPELREAEEHLLVLKDLALQGGRPAPHTPMDWMNGKEGDLVLVNGALRPTLVAQKATLRLRLLNASNARYYRLALQDHPLYLIAADGGFLEEPLEVSELLLAPGERAEVLVRLRKEGRFLLQALPYDRGAMGGMPQGPSRPETLLYLIAPKNPKPLPLPKALSPFPTLPAPVVTRRLVLTEDMMAARFFINGQVFDHRRVDLKGQAQTVEVWEVENQGDMDHPFHLHVHPFQVLSVGGRPFPYRAWKDVVNLKAGEVARLLVPLREKGRTVFHCHIVEHEDRGMMGVLEVG
notes: as for B1
Take B2: the Michaelis-Menten constant (Km) was found to be 49.9 ± 6 µM in series [1] (P1Tth-Lac); 1090 ± 160 µM in series [3] (P1Tth-Lac, pH 6.0); 430 ± 60 µM in series [4] (P1Tth-Lac). Further, the Vmax in series [1] (P1Tth-Lac) is 9.57 ± 0.47 µmol/mg/min; in series [3] (P1Tth-Lac, pH 6.0), 21.48 ± 1.81 µmol/mg/min; in series [4] (P1Tth-Lac), 1.45 ± 0.07 µmol/mg/min.

B3: Tth-Lac (Thermus thermophilus HB27) (protein)
chain: QGPSFPEPKVVRSQGGLLSLKLSATPTPLALAGQRATLLTYGGSFPGPTLRVRPRDTVRLTLENRLPEPTNLHWHGLPISPKVDDPFLEIPPGESWTYEFTVPKELAGTFWYHPHLHGRVAPQLFAGLLGALVVESSLDAIPELREAEEHLLVLKDLALQGGRPAPHTPMDWMNGKEGDLVLVNGALRPTLVAQKATLRLRLLNASNARYYRLALQDHPLYLIAADGGFLEEPLEVSELLLAPGERAEVLVRLRKEGRFLLQALPYDRGAMGMMDMGGMAHAMPQGPSRPETLLYLIAPKNPKPLPLPKALSPFPTLPAPVVTRRLVLTEDMMAARFFINGQVFDHRRVDLKGQAQTVEVWEVENQGDMDHPFHLHVHPFQVLSVGGRPFPYRAWKDVVNLKAGEVARLLVPLREKGRTVFHCHIVEHEDRGMMGVLEVG
notes: as for B1
As for B3, the Km in series [1] stood at 21 ± 2 µM; in series [2] (pH 6.0), 6.17 ± 0.5 µM; in series [3] (pH 6.0), 1030 ± 160 µM; in series [4], 880 ± 80 µM. Besides, the maximal velocity (Vmax) in series [1] was 5.14 ± 0.11 µmol/mg/min; in series [2] (pH 6.0), 13.92 ± 0.31 µmol/mg/min; in series [3] (pH 6.0), 28.48 ± 1.93 µmol/mg/min; in series [4], 6.00 ± 0.24 µmol/mg/min.

B4: Tth-Lac (Thermus thermophilus HB27; DEL292-307/G291S) (protein)
chain: QGPSFPEPKVVRSQGGLLSLKLSATPTPLALAGQRATLLTYGGSFPGPTLRVRPRDTVRLTLENRLPEPTNLHWHGLPISPKVDDPFLEIPPGESWTYEFTVPKELAGTFWYHPHLHGRVAPQLFAGLLGALVVESSLDAIPELREAEEHLLVLKDLALQGGRPAPHTPMDWMNGKEGDLVLVNGALRPTLVAQKATLRLRLLNASNARYYRLALQDHPLYLIAADGGFLEEPLEVSELLLAPGERAEVLVRLRKEGRFLLQALPYDRSGPSRPETLLYLIAPKNPKPLPLPKALSPFPTLPAPVVTRRLVLTEDMMAARFFINGQVFDHRRVDLKGQAQTVEVWEVENQGDMDHPFHLHVHPFQVLSVGGRPFPYRAWKDVVNLKAGEVARLLVPLREKGRTVFHCHIVEHEDRGMMGVLEVG
notes: as for B1
With B4, the Michaelis-Menten constant (Km) in series [1] (C1Tth-Lac) was 45 ± 8 µM; in series [2] (C1Tth-Lac) it was 7.83 ± 1.35 µM; in series [3] (C1Tth-Lac), 280 ± 60 µM. In addition, the figures for the maximal velocity (Vmax) in series [1] (C1Tth-Lac), in series [2] (C1Tth-Lac) and in series [3] (C1Tth-Lac) were 9.47 ± 0.46 µmol/mg/min, 14.60 ± 0.80 µmol/mg/min and 12.34 ± 0.91 µmol/mg/min, respectively.

Usually Km stands for the concentration of substrate that gives half-maximal velocity. A word on the Vmax: it is the rate approached at saturating substrate.
